The values below come from PMC4899477.

This experiment addresses SV2A (SV2). Description: SV-PD (synaptic vesicle pull-down) with blocking peptide, immunoblot densitometry. The settings on record: pull down w/ C3WildF (m1), lower value = stronger block of SV capture by the peptide, parent: est. 39, read off a plot.

As for “… mimetic blocking peptide (CaV2.2 aa 2319-2328) H1G; Q2G; V6A; P7G; N8G; Y10A”, the other: SV2 capture by C3WildF in presence of peptide (% SH3) (N = 8) stood at 74 % SH3.

Regarding “… mimetic blocking peptide (CaV2.2 aa 2319-2328) R4A; R5A”, the other: SV2 capture by C3WildF in presence of peptide (% SH3) (N = 3) was 83 % SH3.

For “… mimetic blocking peptide (CaV2.2 aa 2319-2328) R4G; R5G; V6A; P7G; N8G; Y10A”, the other: SV2 capture by C3WildF in presence of peptide (% SH3) (N = 8) amounted to 110 % SH3.

With “… mimetic blocking peptide (CaV2.2 aa 2319-2328) H1A; Q2A”, the other: SV2 capture by C3WildF in presence of peptide (% SH3) (N = 8) was determined as 58 % SH3.

On to “… mimetic blocking peptide (CaV2.2 aa 2319-2328) V6A; P7G; N8G; Y10A”, for which the other: SV2 capture by C3WildF in presence of peptide (% SH3) (N = 7) worked out at 41 % SH3.

For “… mimetic blocking peptide (CaV2.2 aa 2319-2328) V6A; Y10A”, the other: SV2 capture by C3WildF in presence of peptide (% SH3) (N = 8) came out at 29 % SH3.

Turning to “… mimetic blocking peptide (CaV2.2 aa 2319-2328) V6A; P7A; N8A; G9A; Y10A”, for the setting “N = 5”, the other: SV2 capture by C3WildF in presence of peptide (% SH3) turned out to be 44 % SH3.

With “… mimetic blocking peptide (CaV2.2 aa 2319-2328) V6G; P7A; N8A; G9A; Y10G”, the other: SV2 capture by C3WildF in presence of peptide (% SH3) (N = 6) is 28 % SH3.

“… mimetic blocking peptide (CaV2.2 aa 2319-2328) V6G; Y10G”: the other: SV2 capture by C3WildF in presence of peptide (% SH3) (N = 6) turned out to be 44 % SH3.
